Data reported in patent publication US20200024330A1.

How the values were obtained:
Assay in all cases: cell-based or functional assay
[1] = target: HIV-1 LAVI_C22 Env (HIV-1)
[2] = target: HIV-1 94UG103 envelope glycoprotein (Env) (HIV-1)
[3] = target: HIV-1 Env of isolate MGRM-G-019 (clade G pseudovirus) (HIV-1)
[4] = target: HIV-1 Env of isolate MGRM-D-002 (clade D) (HIV-1)
[5] = target: HIV-1 Env of isolate MGRM-D-022 (clade D) (HIV-1)
[6] = target: HIV-1 MGRM-C-008 Env (HIV-1)
[7] = target: HIV-1 92BR020 envelope protein (Env) on pseudovirus (HIV-1)
[8] = target: HIV-1 IAVI_C22 envelope protein (Env) on pseudotyped virus (HIV-1 isolate IAVI C22)
[9] = target: HIV-1 94UG103 envelope protein (Env) on pseudotyped virus (HIV-1 isolate 94UG103)
[10] = target: HIV-1 TRO.11 Env (pseudovirus) (HIV-1)
[11] = target: HIV-1 Env of isolate 92UG024 (subtype D) (HIV-1)
[12] = target: HIV-1 Env of isolate MG RM-D-024 (subtype D) (HIV-1)
[13] = target: HIV-1 MGRM-Chronic-B-024 Env (pseudovirus) (HIV-1)
[14] = target: HIV-1 Env of isolate MG RM-D-018 (subtype D) (HIV-1)
[15] = target: HIV-1 Env of isolate MGRM-C-010 (pseudovirus) (HIV-1 isolate MGRM-C-010, subtype C)
[16] = target: HIV-1 Env of isolate MG RM-D-029 (subtype D) (HIV-1)
[17] = target: HIV-1 MGRM-C-028 envelope glycoprotein (Env) on pseudovirus (HIV-1)
[18] = target: HIV-1 Env of isolate MG RM-AG-003 (HIV-1)
[19] = target: HIV-1 JR-CSF Env F468A (HIV-1 (isolate JR-CSF)) (UniProt P20871)
[20] = target: HIV-1 Env of isolate MG RM-AG-013 (HIV-1)
[21] = target: HIV-1 Env of isolate MG RM-AG-001 (HIV-1)
[22] = target: HIV-1 Env of isolate MGRM-AE-008 (CRF01_AE), on pseudovirus (HIV-1)
[23] = target: HIV-1 Env of isolate VLGCB3 (HIV-1)
[24] = target: HIV-1 Env of isolate MGRM-D-004 (HIV-1)
[25] = target: HIV-1 Env of isolate MGRM-D-003 (HIV-1)
[26] = target: HIV-1 Env of isolate MGRM-C-023 (HIV-1)
[27] = target: HIV-1 Env of isolate 6535.3 (pseudovirus) (HIV-1 isolate 6535.3, subtype B)
[28] = target: HIV-1 Env of isolate 92UG046 (HIV-1)
[29] = target: HIV-1 envelope glycoprotein (Env) of isolate MGRM-C-017, on pseudovirus (HIV-1)
[30] = target: HIV-1 envelope glycoprotein (Env) of isolate MGRM-C-023, on pseudovirus (HIV-1)
[31] = target: HIV-1 Env of isolate MGRM-D-024 (HIV-1)
[32] = target: HIV-1 envelope glycoprotein (Env) of isolate MGRM-C-027, on pseudovirus (HIV-1)
[33] = target: HIV-1 envelope glycoprotein (Env) of isolate MGRM-C-026, on pseudovirus (HIV-1)

Chain of 1443_C16 (PG16) (TCN-116) (antibody) (VH): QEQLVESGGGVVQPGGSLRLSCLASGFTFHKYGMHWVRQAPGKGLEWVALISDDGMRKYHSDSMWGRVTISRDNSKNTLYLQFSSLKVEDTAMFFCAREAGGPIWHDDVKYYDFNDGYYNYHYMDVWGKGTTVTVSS
Chain of 1443_C16 (PG16) (TCN-116) (antibody) (VL): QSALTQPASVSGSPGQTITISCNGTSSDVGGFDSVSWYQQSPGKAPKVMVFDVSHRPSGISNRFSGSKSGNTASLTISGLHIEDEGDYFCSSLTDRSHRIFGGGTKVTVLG
Chain of 5329_C19 (PGT-136) (antibody) (VH): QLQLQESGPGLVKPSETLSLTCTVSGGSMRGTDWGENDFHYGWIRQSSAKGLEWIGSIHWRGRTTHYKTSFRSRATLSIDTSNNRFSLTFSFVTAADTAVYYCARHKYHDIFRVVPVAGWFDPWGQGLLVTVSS
Chain of 5329_C19 (PGT-136) (antibody) (VL): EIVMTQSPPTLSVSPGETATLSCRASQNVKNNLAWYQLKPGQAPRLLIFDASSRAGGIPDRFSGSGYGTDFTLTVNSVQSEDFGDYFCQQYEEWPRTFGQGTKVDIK
Chain of 5345_I01 (PGT-137) (antibody) (VH): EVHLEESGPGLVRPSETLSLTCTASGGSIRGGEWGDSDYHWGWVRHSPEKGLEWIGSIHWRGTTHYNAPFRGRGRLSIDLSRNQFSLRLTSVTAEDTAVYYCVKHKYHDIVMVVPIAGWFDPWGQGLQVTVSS
Chain of 5345_I01 (PGT-137) (antibody) (VL): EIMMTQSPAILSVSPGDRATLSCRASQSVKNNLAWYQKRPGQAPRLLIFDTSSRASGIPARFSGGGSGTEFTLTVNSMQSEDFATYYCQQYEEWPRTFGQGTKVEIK

| Substance | IC50 [1] | IC50 (µg/ml), pseudovirus neutralization [2] | IC50 (µg/ml), pseudovirus neutralization [3] | IC50 (µg/ml), pseudovirus neutralization [4] | IC50 (µg/ml), pseudovirus neutralization [5] | IC50 [6] | neutralization IC50 [7] | IC50, pseudovirus neutralization [10] | IC50 (µg/mL), pseudovirus neutralization [11] | IC50 (µg/mL), pseudovirus neutralization [12] | IC50, pseudovirus neutralization [13] | IC50 (µg/mL), pseudovirus neutralization [14] | IC50 (µg/mL) neutralization [15] | IC50 (µg/mL), pseudovirus neutralization [16] | Fold IC50 increase relative to wild-type [19] | IC50, single-round pseudovirus neutralization [22] | IC50 [23] | IC50 [24] | IC50 [25] | IC50 [26] | also measured |
| --- | --- | --- | --- | --- | --- | --- | --- | --- | --- | --- | --- | --- | --- | --- | --- | --- | --- | --- | --- | --- | --- |
| 2F5 (antibody) | > 50 µg/mL | 1.92 µg/mL | > 50 µg/mL | 24.6 µg/mL | 8.45 µg/mL | > 50 µg/mL | > 50 µg/mL | – | – | – | – | – | – | – | – | – | – | – | – | – | – |
| 2G12 (antibody) | > 50 µg/mL | 48.1 µg/mL | 31 µg/mL | > 50 µg/mL | > 50 µg/mL | > 50 µg/mL | 2.26 µg/mL | – | – | – | – | – | – | – | – | – | – | – | – | – | – |
| 4E10 (antibody) | 2.02 µg/mL | 4.97 µg/mL | 6.53 µg/mL | 9.44 µg/mL | 16.9 µg/mL | 2.97 µg/mL | 41.4 µg/mL | – | – | – | – | – | – | – | – | – | – | – | – | – | – |
| 1443_C16 (PG16) (TCN-116) (antibody) | 0.02 µg/mL | 0.04 µg/mL | 1.21 µg/mL | 0.01 µg/mL | > 50 µg/mL | > 50 µg/mL | > 50 µg/mL | – | – | – | – | – | – | – | – | – | – | – | – | – | IC50, pseudovirus neutralization, 1 hour Virus/Ab Incubation [8]: 0.114 µg/mL; IC50, pseudovirus neutralization, 18 hour Virus/Ab Incubation [8]: 0.106 µg/mL; IC50, pseudovirus neutralization, 1 hour Virus/Ab Incubation [9]: 0.0211 µg/mL; IC50, pseudovirus neutralization, 18 hour Virus/Ab Incubation [9]: 8.5 ng/mL |
| 1495_C14 (PGC14) (antibody) | 25 µg/mL | > 50 µg/mL | > 50 µg/mL | 29 µg/mL | > 50 µg/mL | > 50 µg/mL | 0.637 µg/mL | – | – | – | – | – | – | – | – | – | – | – | – | – | IC50, pseudovirus neutralization, 1 hour Virus/Ab Incubation [8]: > 50 µg/mL; IC50, pseudovirus neutralization, 18 hour Virus/Ab Incubation [8]: 13.4 µg/mL; IC50, pseudovirus neutralization, 1 hour Virus/Ab Incubation [9]: > 50 µg/mL; IC50, pseudovirus neutralization, 18 hour Virus/Ab Incubation [9]: > 50000 ng/mL |
| 4838_L06 (PGT-121) (antibody) | – | – | – | – | – | – | – | 0.008 µg/mL | > 50 µg/mL | 0.038 µg/mL | 0.195 µg/mL | 0.005 µg/mL | > 50 µg/mL | > 50 µg/mL | – | – | – | – | – | – | – |
| 4858_P08 (PGT-123) (antibody) | – | – | – | – | – | – | – | 0.008 µg/mL | > 50 µg/mL | 0.023 µg/mL | > 50 µg/mL | 0.007 µg/mL | > 50 µg/mL | > 50 µg/mL | 0.5 fold | – | – | – | – | – | IC50 (ug/ml), neutralizing activity [17]: 0.443 µg/mL; IC50, pseudovirus neutralization [17]: 0.443 µg/mL; IC80, pseudovirus neutralization [17]: 2.8 µg/mL; IC90 (pseudovirus neutralization) [17]: 7.11 µg/mL; IC95, pseudovirus neutralization [17]: > 10 µg/mL; neutralization IC50 [18]: > 50 µg/mL; neutralization IC50 [20]: 3.37 µg/mL; neutralization IC50 [21]: 2.51 µg/mL |
| 4877_D15 (PGT-122) (antibody) | – | – | – | – | – | – | – | 0.011 µg/mL | > 50 µg/mL | 0.185 µg/mL | 2.31 µg/mL | 0.007 µg/mL | > 50 µg/mL | > 50 µg/mL | – | – | – | – | – | – | IC50 (ug/ml), neutralizing activity [17]: 2.06 µg/mL; neutralization IC50 [18]: 43.7 µg/mL; neutralization IC50 [20]: 0.521 µg/mL; neutralization IC50 [21]: 14.5 µg/mL |
| 5114_A19 (PGT-128) (antibody) | – | – | – | – | – | – | – | – | – | – | – | – | – | – | 0.5 fold | > 50 µg/mL | 0.012 µg/mL | 24.9 µg/mL | 0.019 µg/mL | 0.026 µg/mL | IC50 (µg/mL) neutralization [27]: 0.011 µg/mL; IC50 [28]: > 50 µg/mL |
| 5123_A06 (PGT-125) (antibody) | – | – | – | – | – | – | – | 0.111 µg/mL | > 50 µg/mL | > 50 µg/mL | > 50 µg/mL | > 50 µg/mL | > 50 µg/mL | > 50 µg/mL | 1 fold | – | – | – | – | – | IC50 (ug/ml), neutralizing activity [17]: 5.78 µg/mL; neutralization IC50 [17]: 5.78 µg/mL; neutralization IC80 [17]: > 10 µg/mL; neutralization IC90 [17]: > 10 µg/mL; neutralization IC95 [17]: > 10 µg/mL; neutralization IC50 [18]: > 50 µg/mL; neutralization IC50 [20]: 0.004 µg/mL; neutralization IC50 [21]: > 50 µg/mL |
| 5136_H01 (PGT-131) (antibody) | – | – | – | – | – | – | – | – | – | – | – | – | – | – | 1.6 fold | > 50 µg/mL | > 50 µg/mL | 2.01 µg/mL | 19.6 µg/mL | 0.143 µg/mL | IC50 (µg/mL) neutralization [27]: 0.056 µg/mL; IC50 [28]: > 50 µg/mL |
| 5141_B17 (PGT-126) (antibody) | – | – | – | – | – | – | – | 0.041 µg/mL | > 50 µg/mL | 0.376 µg/mL | > 50 µg/mL | 0.009 µg/mL | > 50 µg/mL | > 50 µg/mL | 0.7 fold | – | – | – | – | – | IC50 (ug/ml), neutralizing activity [17]: 0.283 µg/mL; neutralization IC50 [18]: > 50 µg/mL; neutralization IC50 [20]: 0.008 µg/mL; neutralization IC50 [21]: > 50 µg/mL |
| 5145_B14 (PGT-127) (antibody) | – | – | – | – | – | – | – | 0.079 µg/mL | > 50 µg/mL | 1.95 µg/mL | > 50 µg/mL | 0.021 µg/mL | > 50 µg/mL | > 50 µg/mL | 3 fold | – | – | – | – | – | neutralization IC50 [18]: > 50 µg/mL; neutralization IC50 [20]: 0.018 µg/mL; neutralization IC50 [21]: > 50 µg/mL |
| 5147_N06 (PGT-130) (antibody) | – | – | – | – | – | – | – | – | – | – | – | – | – | – | 0.4 fold | > 50 µg/mL | 4.6 µg/mL | 1.21 µg/mL | 0.651 µg/mL | 0.151 µg/mL | IC50 (ug/ml), neutralizing activity [17]: > 10 µg/mL; IC50 (µg/mL) neutralization [27]: 0.031 µg/mL; IC50 [28]: > 50 µg/mL |
| 5329_C19 (PGT-136) (antibody) | – | – | – | – | – | – | – | – | – | – | – | – | – | – | – | > 50 µg/mL | > 50 µg/mL | > 50 µg/mL | > 50 µg/mL | 3.2 µg/mL | IC50 (µg/mL) neutralization [27]: > 50 µg/mL; IC50 [28]: > 50 µg/mL |
| 5343_B08 (PGT-135) (antibody) | – | – | – | – | – | – | – | – | – | – | – | – | – | – | 1.1 fold | > 50 µg/mL | 0.142 µg/mL | > 50 µg/mL | > 50 µg/mL | 0.051 µg/mL | IC50 (µg/mL) neutralization [27]: > 50 µg/mL; IC50 [28]: > 50 µg/mL |
| 5345_I01 (PGT-137) (antibody) | – | – | – | – | – | – | – | – | – | – | – | – | – | – | – | > 50 µg/mL | 3.36 µg/mL | > 50 µg/mL | > 50 µg/mL | 0.23 µg/mL | IC50 (µg/mL) neutralization [27]: > 50 µg/mL; IC50 [28]: > 50 µg/mL |
| VRC01 (antibody) | – | – | – | – | – | – | – | – | – | – | – | – | – | – | – | – | – | – | – | – | neutralization IC50 [23]: 0.108 µg/mL; IC50, pseudovirus neutralization [29]: 0.366 µg/mL; IC50, pseudovirus neutralization [30]: 0.077 µg/mL; IC50, pseudovirus neutralization [31]: 0.366 µg/mL; IC50, pseudovirus neutralization [32]: 0.125 µg/mL; IC50, pseudovirus neutralization [33]: 0.707 µg/mL |
| b12 (antibody) | 7.64 µg/mL | 6.92 µg/mL | 3.77 µg/mL | > 50 µg/mL | 17.6 µg/mL | 1.51 µg/mL | 27.5 µg/mL | – | – | – | – | – | – | – | – | – | – | – | – | – | – |
